Among the data in patent US20140363465A1 are IL-2 production by the RF33.70 T cell hybridoma (sandwich ELISA), SIINFEKL peptide concentration giving a detectable response and level of IL-2 production generated in response to free SIINFEKL peptide values, retold here.

This experiment addresses SIINFEKL:H-2K^b complex on the surface of A3.1A7 macrophage cells (chicken). Nature of the experiment: cell-based or functional assay.

In turn, “T cell receptor of the RF33.70 T-T hybridoma (CD8+, SIINFEKL-specific, H-2K^b-restricted) (TCR)” returned an IL-2 production by the RF33.70 T cell hybridoma (sandwich ELISA), SIINFEKL peptide concentration giving a detectable response of less than 0.1 pg/mL and a level of IL-2 production generated in response to free SIINFEKL peptide of less than 275 pg/mL.
